In US20110009311A1 (US Dept. of Health and Human Services, published 2011):
Where no end group is shown, it is not given here.

B1: MBP-invasin fusion protein (ligand)
chain: AVIGDGAPANGKTAITVEFTVADFEGKPLAGQEVVITTNNGALPNKITEKTDANGVARIALTNTTDGVTVVTAEVEGQRQSVDTHFVKGTIAADKSTLAAVPTSIIADGLMASTITLELKDTYGDPQAGANVAFDTTLGNMGVITDHNDGTYSAPLTSTTLGVATVTVKVDGAAFSVPSVTVNFTADPIPDAGRSSFTVSTPDILADGTMSSTLSFVPVDKNGHFISGMQGLSFTQNGVPVSISPITEQPDSYTATVVGNTAGDVTITPQVDTLILSTLQKKISLFPVPTLTGILVNGQNFATDKGFPKTIFKNATFQLQMDNDVANNTQYEWSSSFTPNVSVNDQGQVTITYQTYSEVAVTAKSKKFPSYSVSYRFYPNRWIYDGGTSLVSSLEASRQCQGSDMSAVLESSRATNGTRAPDGTLWGEWGSLTAYSSDWQSGEYWVKKTSTDFETMNMDTGALVQGPAYLAFPLCALAI
B2: thrombospondin-1 (TSP1), calcium replete, purified from human platelets (ligand)
chain: not shown

Biological target: T1, α3β1 integrin (endogenous on human cells: MDA-MB-435 breast carcinoma, HUVEC, HDME, OH-1 SCLC) (human, UniProt P26006 33-1051; P05556 21-798)
T1 sequence (P26006 33-1051, chain 1 of 2): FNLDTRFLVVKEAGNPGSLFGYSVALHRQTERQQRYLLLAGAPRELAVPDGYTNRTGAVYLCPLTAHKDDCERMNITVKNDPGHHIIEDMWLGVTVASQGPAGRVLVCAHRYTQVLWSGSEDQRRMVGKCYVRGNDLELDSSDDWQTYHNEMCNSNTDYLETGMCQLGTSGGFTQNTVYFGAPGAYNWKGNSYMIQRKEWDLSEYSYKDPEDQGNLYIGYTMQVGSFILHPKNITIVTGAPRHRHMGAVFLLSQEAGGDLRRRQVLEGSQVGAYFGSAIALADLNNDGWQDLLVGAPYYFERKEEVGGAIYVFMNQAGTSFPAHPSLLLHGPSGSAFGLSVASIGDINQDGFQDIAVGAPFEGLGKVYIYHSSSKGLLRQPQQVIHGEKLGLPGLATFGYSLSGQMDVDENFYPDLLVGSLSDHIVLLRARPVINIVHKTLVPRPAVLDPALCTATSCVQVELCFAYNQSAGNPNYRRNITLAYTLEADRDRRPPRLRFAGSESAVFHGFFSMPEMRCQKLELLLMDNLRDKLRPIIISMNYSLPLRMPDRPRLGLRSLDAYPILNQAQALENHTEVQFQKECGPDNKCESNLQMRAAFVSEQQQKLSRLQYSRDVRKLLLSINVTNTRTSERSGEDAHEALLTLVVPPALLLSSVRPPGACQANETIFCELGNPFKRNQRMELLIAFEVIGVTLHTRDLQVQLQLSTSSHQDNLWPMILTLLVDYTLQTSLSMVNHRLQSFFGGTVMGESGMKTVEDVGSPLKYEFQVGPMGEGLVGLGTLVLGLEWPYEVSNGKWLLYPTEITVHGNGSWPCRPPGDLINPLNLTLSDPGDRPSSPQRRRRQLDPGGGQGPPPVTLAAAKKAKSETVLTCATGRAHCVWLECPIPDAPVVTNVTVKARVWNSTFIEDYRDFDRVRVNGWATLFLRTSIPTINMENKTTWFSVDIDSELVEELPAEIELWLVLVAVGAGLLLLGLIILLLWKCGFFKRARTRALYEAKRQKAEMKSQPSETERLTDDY
T1 sequence (P05556 21-798, chain 2 of 2): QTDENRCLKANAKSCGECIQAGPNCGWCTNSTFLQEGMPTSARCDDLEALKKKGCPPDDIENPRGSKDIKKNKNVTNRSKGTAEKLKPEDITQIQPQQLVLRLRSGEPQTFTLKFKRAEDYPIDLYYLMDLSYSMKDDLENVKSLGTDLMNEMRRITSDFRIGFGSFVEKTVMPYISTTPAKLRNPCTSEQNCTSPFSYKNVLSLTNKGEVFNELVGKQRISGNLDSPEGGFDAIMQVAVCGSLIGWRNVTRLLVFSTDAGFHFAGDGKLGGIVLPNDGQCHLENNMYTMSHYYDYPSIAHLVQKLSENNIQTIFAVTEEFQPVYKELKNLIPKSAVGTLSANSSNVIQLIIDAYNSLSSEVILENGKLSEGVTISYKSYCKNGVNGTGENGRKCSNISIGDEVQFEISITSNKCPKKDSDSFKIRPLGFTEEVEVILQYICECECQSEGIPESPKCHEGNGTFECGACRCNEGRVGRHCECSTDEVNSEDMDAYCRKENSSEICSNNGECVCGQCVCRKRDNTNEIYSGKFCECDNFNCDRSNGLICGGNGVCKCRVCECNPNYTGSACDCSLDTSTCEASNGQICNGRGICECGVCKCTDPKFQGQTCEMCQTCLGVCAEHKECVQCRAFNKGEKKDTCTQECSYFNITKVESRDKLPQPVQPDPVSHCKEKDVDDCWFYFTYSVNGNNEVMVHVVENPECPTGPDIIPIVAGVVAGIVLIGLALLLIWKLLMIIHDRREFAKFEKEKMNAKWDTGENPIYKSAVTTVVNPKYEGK
Experiment: cell-based or functional assay

| Binder | IC50, inhibition of MDA-MB-435 cell adhesion to peptide 678, GD6 or TSP1 by the soluble laminin peptide (data not shown) [µM] | IC50, inhibition of OH-1 SCLC cell proliferation by soluble peptide [µM] | IC50, inhibition of OH-1 SCLC cell proliferation by soluble protein [µM] |
| --- | --- | --- | --- |
| KQNCLSSRASFRGCVRNLRLSR [murine laminin-1 peptide GD6] | 700 |  |  |
| FQGVLQNVRFVF [TSP1 peptide 678] |  | 6 |  |
| B1 |  |  | 0.08 |
| B2 |  |  | 0.04 |

Biological target: T1, α3β1 integrin (endogenous on human …)
Experiment: cell-based or functional assay
Remark: another data set of the same source

| Binder | IC50, inhibition of MDA-MB-435 cell adhesion to immobilized peptide 678 (microscopic adhesion assay) [µM] | IC50, inhibition of MDA-MB-435 cell adhesion to immobilized peptide 678 (hexosaminidase method) [µM] |
| --- | --- | --- |
| TPGQVRTLWHDP (also called (part of C6)) [TSP1 peptide 701] | > 300 |  |
| FQGVLNNVRFVF [peptide 698] | 3 |  |
| FQGVLQNVRFVF [TSP1 peptide 678] | 3.5 | 15 |
| FQGVLQNVAFVF (also called control peptide 690) [peptide 690] | > 300 |  |
| Ac-LQNVRF-NH2 [peptide 681] | 500 |  |
| QGVLQNVR [peptide 683] | > 300 |  |
| FQGVLQNVRFVA [peptide 693] | 27 |  |
| FRGCVRNLRLSR [laminin peptide 679] |  | 700 |
| LQNVRFVF [peptide 684] | 300 |  |
| FQGVLQNVRAVF [peptide 692] | 18 |  |
| FAGVLQNVRFVF [peptide 696] | 1.8 | 12 |
| FQGVLQNVRF [peptide 682] | 6 |  |
| FQGVLQNVHFVF [peptide 694] | 54 |  |
| QGVLQNVRFVF [peptide 685] | 24 |  |
| FQGVLANVRFVF [peptide 687] | 3 |  |
| FQGVLQSVRFVF [peptide 705] |  | 15 |
| AQGVLQNVRFVF [peptide 697] | 5 |  |
| FQGVAQNVRFVF [peptide 695] | 5 |  |
| FQGVLQNVKFVF [peptide 702] | 6 | 25 |
| FQGVLQNLRFVF [peptide 719] |  | 16 |
| FQGVLQQVRFVF [peptide 717] |  | 30 |
| FQGVLQDVRFVF [peptide 718] |  | 12 |
| Ac-QGVLQNVRF [peptide 704] | 15 | ~100 |
| VLQNVRFVF [peptide 688] | > 100 |  |

Biological target: T1, α3β1 integrin (endogenous on human …)
Experiment: cell-based or functional assay
Remark: another data set of the same source

| Binder | IC50 (µM), inhibition of MDA-MB-435 cell adhesion to immobilized peptide 678 [µM] |
| --- | --- |
| FQGVLQNVRFVF [TSP1 peptide 678] | 3.5 |
| FQGVLQNVAFVF (also called control peptide 690) [peptide 690] | > 300 |
| FQGVLQNVRFVA [peptide 693] | 27 |
| FQGVLQNVRAVF [peptide 692] | 18 |
| FAGVLQNVRFVF [peptide 696] | 1.8 |
| FQGVLQNVHFVF [peptide 694] | 54 |
| FQGVLANVRFVF [peptide 687] | 3 |
| AQGVLQNVRFVF [peptide 697] | 5 |
| FQGVAQNVRFVF [peptide 695] | 5 |
| FQGVLQNVKFVF [peptide 702] | 6 |

Biological target: T1, α3β1 integrin (endogenous on human …)
Experiment: direct MDA-MB-435 cell adhesion to adsorbed peptide (FIG. 8)

| Binder | binding result |
| --- | --- |
| FQGVLQNVAFVF (also called control peptide 690) [peptide 690] | no binding (tested: adsorbed at 10 µM) |

Biological target: T1, α3β1 integrin (endogenous on human …)
Experiment: MDA-MB-435 cell adhesion and inhibition of adhesion (FIG. 3A and results not shown)

| Binder | binding result |
| --- | --- |
| TPGQVRTLWHDP (also called (part of C6)) [TSP1 peptide 701] | no binding |

Biological target: T1, α3β1 integrin (endogenous on human …)
Experiment: soluble peptide, inhibition of MDA-MB-435 cell adhesion to immobilized peptide 678

| Binder | binding result |
| --- | --- |
| QGVLQNVR [peptide 683] | no binding (tested: >300 µM) |
